Assay results published in article PMC9482650, “Quantitative fragmentomics allow affinity mapping of interactomes” (Nature Communications, 2022).

T1: LRRC7, Q96NW7
T1 sequence (Q96NW7 1440-1537, limits assumed, looked up): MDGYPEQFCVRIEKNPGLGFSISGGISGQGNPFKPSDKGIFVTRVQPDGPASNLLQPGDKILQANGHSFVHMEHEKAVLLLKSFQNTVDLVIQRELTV

T2: RHPN1, Q8TCX5
T2 sequence (Q8TCX5 508-602, limits assumed, looked up): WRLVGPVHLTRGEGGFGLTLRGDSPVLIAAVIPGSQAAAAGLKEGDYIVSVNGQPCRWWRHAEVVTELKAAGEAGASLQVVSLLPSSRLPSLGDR

T3: ARHGEF11, O15085
T3 sequence (O15085 42-136, limits assumed, looked up): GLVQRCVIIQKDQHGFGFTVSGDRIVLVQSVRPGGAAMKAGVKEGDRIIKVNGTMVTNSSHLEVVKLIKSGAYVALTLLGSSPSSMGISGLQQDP

T4: GRIP1_3, Q9Y3R0
T4 sequence (Q9Y3R0 247-346, limits assumed, looked up): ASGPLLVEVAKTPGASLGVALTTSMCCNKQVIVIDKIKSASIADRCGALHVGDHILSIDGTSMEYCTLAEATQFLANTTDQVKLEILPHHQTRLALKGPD

T5: HTRA3, P83110
T5 sequence (P83110 354-453, limits assumed, looked up): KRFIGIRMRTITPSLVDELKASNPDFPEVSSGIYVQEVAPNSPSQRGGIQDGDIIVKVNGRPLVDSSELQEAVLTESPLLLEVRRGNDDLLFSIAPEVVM

T6: LNX2_3, Q8N448
T6 sequence (Q8N448 463-564, limits assumed, looked up): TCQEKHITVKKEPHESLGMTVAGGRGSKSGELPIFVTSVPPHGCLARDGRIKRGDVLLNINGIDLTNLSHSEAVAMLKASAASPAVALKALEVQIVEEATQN

T7: MPDZ_12, O75970
T7 sequence (O75970 1857-1958, limits assumed, looked up): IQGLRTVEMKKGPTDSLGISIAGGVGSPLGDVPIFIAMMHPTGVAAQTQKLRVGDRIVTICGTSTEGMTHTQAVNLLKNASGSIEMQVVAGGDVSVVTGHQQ

T8: CARD11, Q9BXL7
T8 sequence (Q9BXL7 662-765, limits assumed, looked up): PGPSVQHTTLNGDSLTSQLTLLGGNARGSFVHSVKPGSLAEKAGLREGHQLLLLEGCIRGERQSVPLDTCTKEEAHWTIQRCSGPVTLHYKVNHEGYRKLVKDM

T9: GRIP1_7, Q9Y3R0
T9 sequence (Q9Y3R0 999-1096, limits assumed, looked up): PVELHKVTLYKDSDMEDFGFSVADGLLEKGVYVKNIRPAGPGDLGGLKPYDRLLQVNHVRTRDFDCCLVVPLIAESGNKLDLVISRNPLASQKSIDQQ

T10: DVL3, Q92997
T10 sequence (Q92997 244-331, limits assumed, looked up): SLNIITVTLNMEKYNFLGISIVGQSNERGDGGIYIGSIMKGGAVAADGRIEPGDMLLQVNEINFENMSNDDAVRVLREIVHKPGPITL

B1: KCNT1, Q5JUK3 (peptide)
chain: NPETRDETQL
B2: GAGE12J, A6NER3 (peptide)
chain: PEEGKKQSQC

target: T1, LRRC7, Q96NW7; test: holdup assay; set-up: key: below the threshold = too weak to quantify, mostly under pKd 3.1 to 4; settings: plain residues with an end cap or a label only (N-terminal biotin on a linker: ado-ado)

Binder | pKd
B1 | below the threshold
B2 | below the threshold

target: DLG5_1, Q8TDM6; test: holdup assay; set-up: key: below the threshold = too weak to quantify, mostly under pKd 3.1 to 4; settings: plain residues with an end cap or a label only (N-terminal biotin on a linker: ado-ado)
Sequence (Q8TDM6 617-713): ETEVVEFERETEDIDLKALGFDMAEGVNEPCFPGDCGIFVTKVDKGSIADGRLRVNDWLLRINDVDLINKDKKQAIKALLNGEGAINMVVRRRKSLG

Binder | pKd
B1 | below the threshold
B2 | below the threshold

target: T2, RHPN1, Q8TCX5; test: holdup assay; set-up: key: below the threshold = too weak to quantify, mostly under pKd 3.1 to 4; settings: plain residues with an end cap or a label only (N-terminal biotin on a linker: ado-ado)

Binder | pKd
B1 | 4.43
B2 | below the threshold

target: SCRIB_1, Q14160; test: holdup assay; set-up: key: below the threshold = too weak to quantify, mostly under pKd 3.1 to 4; settings: plain residues with an end cap or a label only (N-terminal biotin on a linker: ado-ado)
Sequence (Q14160 718-814): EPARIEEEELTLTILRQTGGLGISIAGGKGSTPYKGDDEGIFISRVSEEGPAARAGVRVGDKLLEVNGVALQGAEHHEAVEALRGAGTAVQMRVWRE

Binder | pKd
B1 | 4.46
B2 | below the threshold

target: Inadl_10, Q8NI35; test: holdup assay; set-up: key: below the threshold = too weak to quantify, mostly under pKd 3.1 to 4; settings: plain residues with an end cap or a label only (N-terminal biotin on a linker: ado-ado)
Sequence (Q8NI35 1673-1763): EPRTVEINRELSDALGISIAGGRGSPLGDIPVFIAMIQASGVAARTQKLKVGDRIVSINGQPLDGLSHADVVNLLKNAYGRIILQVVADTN

Binder | pKd
B1 | below the threshold
B2 | below the threshold

target: T3, ARHGEF11, O15085; test: holdup assay; set-up: key: below the threshold = too weak to quantify, mostly under pKd 3.1 to 4; settings: plain residues with an end cap or a label only (N-terminal biotin on a linker: ado-ado)

Binder | pKd
B1 | 4.01
B2 | 3.62

target: T4, GRIP1_3, Q9Y3R0; test: holdup assay; set-up: key: below the threshold = too weak to quantify, mostly under pKd 3.1 to 4; settings: plain residues with an end cap or a label only (N-terminal biotin on a linker: ado-ado)

Binder | pKd
B1 | below the threshold
B2 | below the threshold

target: T5, HTRA3, P83110; test: holdup assay; set-up: key: below the threshold = too weak to quantify, mostly under pKd 3.1 to 4; settings: plain residues with an end cap or a label only (N-terminal biotin on a linker: ado-ado)

Binder | pKd
B1 | below the threshold
B2 | below the threshold

target: T6, LNX2_3, Q8N448; test: holdup assay; set-up: key: below the threshold = too weak to quantify, mostly under pKd 3.1 to 4; settings: plain residues with an end cap or a label only (N-terminal biotin on a linker: ado-ado)

Binder | pKd
B1 | below the threshold
B2 | below the threshold

target: T7, MPDZ_12, O75970; test: holdup assay; set-up: key: below the threshold = too weak to quantify, mostly under pKd 3.1 to 4; settings: plain residues with an end cap or a label only (N-terminal biotin on a linker: ado-ado)

Binder | pKd
B1 | below the threshold
B2 | below the threshold

target: TJP1_3, Q07157; test: holdup assay; set-up: key: below the threshold = too weak to quantify, mostly under pKd 3.1 to 4; settings: plain residues with an end cap or a label only (N-terminal biotin on a linker: ado-ado)
Sequence (Q07157 416-512): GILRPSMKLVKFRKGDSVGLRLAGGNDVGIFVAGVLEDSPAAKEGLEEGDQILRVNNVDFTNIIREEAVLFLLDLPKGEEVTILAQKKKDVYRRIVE

Binder | pKd
B1 | below the threshold
B2 | below the threshold

target: LNX1_1, Q8TBB1; test: holdup assay; set-up: key: below the threshold = too weak to quantify, mostly under pKd 3.1 to 4; settings: plain residues with an end cap or a label only (N-terminal biotin on a linker: ado-ado)
Sequence (Q8TBB1 261-371): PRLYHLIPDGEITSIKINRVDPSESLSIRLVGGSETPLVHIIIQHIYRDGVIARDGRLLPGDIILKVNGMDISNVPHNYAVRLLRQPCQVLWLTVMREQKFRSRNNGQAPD

Binder | pKd
B1 | below the threshold
B2 | below the threshold

target: T8, CARD11, Q9BXL7; test: holdup assay; set-up: key: below the threshold = too weak to quantify, mostly under pKd 3.1 to 4; settings: plain residues with an end cap or a label only (N-terminal biotin on a linker: ado-ado)

Binder | pKd
B1 | below the threshold
B2 | below the threshold

target: GRASP, Q7Z6J2; test: holdup assay; set-up: key: below the threshold = too weak to quantify, mostly under pKd 3.1 to 4; settings: plain residues with an end cap or a label only (N-terminal biotin on a linker: ado-ado)
Sequence (Q7Z6J2 96-193): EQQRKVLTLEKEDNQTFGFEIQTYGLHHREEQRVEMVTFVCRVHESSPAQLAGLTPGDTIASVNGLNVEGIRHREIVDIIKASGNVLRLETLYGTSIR

Binder | pKd
B1 | below the threshold
B2 | below the threshold

target: T9, GRIP1_7, Q9Y3R0; test: holdup assay; set-up: key: below the threshold = too weak to quantify, mostly under pKd 3.1 to 4; settings: plain residues with an end cap or a label only (N-terminal biotin on a linker: ado-ado)

Binder | pKd
B1 | below the threshold
B2 | below the threshold

target: NHERF4_1, Q86UT5-2; test: holdup assay; set-up: key: below the threshold = too weak to quantify, mostly under pKd 3.1 to 4; settings: plain residues with an end cap or a label only (N-terminal biotin on a linker: ado-ado)
Sequence (Q86UT5 other isoform, or with tags, fused parts or gaps): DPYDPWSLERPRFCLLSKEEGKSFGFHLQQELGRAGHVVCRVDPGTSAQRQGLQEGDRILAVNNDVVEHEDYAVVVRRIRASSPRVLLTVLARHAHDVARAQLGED

Binder | pKd
B1 | 3.9
B2 | 3.79

target: GRIP2_5, Q9C0E4; test: holdup assay; set-up: key: below the threshold = too weak to quantify, mostly under pKd 3.1 to 4; settings: plain residues with an end cap or a label only (N-terminal biotin on a linker: ado-ado)
Sequence (Q9C0E4 544-642): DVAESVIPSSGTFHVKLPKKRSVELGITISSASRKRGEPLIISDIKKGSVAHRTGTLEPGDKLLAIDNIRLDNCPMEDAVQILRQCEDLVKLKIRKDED

Binder | pKd
B1 | below the threshold
B2 | below the threshold

target: IL16_1, Q14005; test: holdup assay; set-up: key: below the threshold = too weak to quantify, mostly under pKd 3.1 to 4; settings: plain residues with an end cap or a label only (N-terminal biotin on a linker: ado-ado)
Sequence (Q14005 210-306): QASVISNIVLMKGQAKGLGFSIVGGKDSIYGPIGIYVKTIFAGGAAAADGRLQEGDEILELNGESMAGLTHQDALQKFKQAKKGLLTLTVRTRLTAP

Binder | pKd
B1 | below the threshold
B2 | below the threshold

target: GIPC2, Q8TF65; test: holdup assay; set-up: key: below the threshold = too weak to quantify, mostly under pKd 3.1 to 4; settings: plain residues with an end cap or a label only (N-terminal biotin on a linker: ado-ado)
Sequence (Q8TF65 112-203): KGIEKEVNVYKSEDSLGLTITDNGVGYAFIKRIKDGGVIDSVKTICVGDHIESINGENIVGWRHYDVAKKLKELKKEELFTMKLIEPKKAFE

Binder | pKd
B1 | 3.49
B2 | 3.62

target: LDB3, O75112; test: holdup assay; set-up: key: below the threshold = too weak to quantify, mostly under pKd 3.1 to 4; settings: plain residues with an end cap or a label only (N-terminal biotin on a linker: ado-ado)
Sequence (O75112 1-94): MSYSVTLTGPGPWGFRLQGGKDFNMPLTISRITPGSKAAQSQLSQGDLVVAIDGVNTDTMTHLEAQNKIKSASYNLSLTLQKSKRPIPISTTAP

Binder | pKd
B1 | below the threshold
B2 | below the threshold

target: NHERF4_4, Q86UT5; test: holdup assay; set-up: key: below the threshold = too weak to quantify, mostly under pKd 3.1 to 4; settings: plain residues with an end cap or a label only (N-terminal biotin on a linker: ado-ado)
Sequence (Q86UT5 464-550): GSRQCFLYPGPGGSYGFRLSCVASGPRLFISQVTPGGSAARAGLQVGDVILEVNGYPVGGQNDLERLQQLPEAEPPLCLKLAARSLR

Binder | pKd
B1 | 3.99
B2 | below the threshold

target: T10, DVL3, Q92997; test: holdup assay; set-up: key: below the threshold = too weak to quantify, mostly under pKd 3.1 to 4; settings: plain residues with an end cap or a label only (N-terminal biotin on a linker: ado-ado)

Binder | pKd
B1 | below the threshold
B2 | below the threshold

target: PDZRN4_1, Q6ZMN7; test: holdup assay; set-up: key: below the threshold = too weak to quantify, mostly under pKd 3.1 to 4; settings: plain residues with an end cap or a label only (N-terminal biotin on a linker: ado-ado)
Sequence (Q6ZMN7 213-318): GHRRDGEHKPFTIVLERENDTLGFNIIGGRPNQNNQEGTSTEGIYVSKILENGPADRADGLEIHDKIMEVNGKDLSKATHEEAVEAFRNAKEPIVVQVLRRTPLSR

Binder | pKd
B1 | 4.69
B2 | below the threshold

target: MAGI2_3, Q86UL8; test: holdup assay; set-up: key: below the threshold = too weak to quantify, mostly under pKd 3.1 to 4; settings: plain residues with an end cap or a label only (N-terminal biotin on a linker: ado-ado)
Sequence (Q86UL8 600-682): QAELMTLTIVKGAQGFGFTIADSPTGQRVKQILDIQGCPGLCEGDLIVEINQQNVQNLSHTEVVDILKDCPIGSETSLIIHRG

Binder | pKd
B1 | 3.52
B2 | 3.58

target: MAGI1_2, Q96QZ7; test: holdup assay; set-up: key: below the threshold = too weak to quantify, mostly under pKd 3.1 to 4; settings: plain residues with an end cap or a label only (N-terminal biotin on a linker: ado-ado)
Sequence (Q96QZ7 456-580): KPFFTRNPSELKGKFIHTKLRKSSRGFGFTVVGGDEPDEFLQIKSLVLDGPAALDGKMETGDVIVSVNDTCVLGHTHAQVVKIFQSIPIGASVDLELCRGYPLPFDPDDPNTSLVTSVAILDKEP

Binder | pKd
B1 | below the threshold
B2 | below the threshold

target: NHERF4_2, Q86UT5; test: holdup assay; set-up: key: below the threshold = too weak to quantify, mostly under pKd 3.1 to 4; settings: plain residues with an end cap or a label only (N-terminal biotin on a linker: ado-ado)
Sequence (Q86UT5 220-308): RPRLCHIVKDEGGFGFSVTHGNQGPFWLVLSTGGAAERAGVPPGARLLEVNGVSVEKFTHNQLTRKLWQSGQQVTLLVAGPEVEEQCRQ

Binder | pKd
B1 | below the threshold
B2 | below the threshold

target: LNX1_3, Q8TBB1; test: holdup assay; set-up: key: below the threshold = too weak to quantify, mostly under pKd 3.1 to 4; settings: plain residues with an end cap or a label only (N-terminal biotin on a linker: ado-ado)
Sequence (Q8TBB1 500-596): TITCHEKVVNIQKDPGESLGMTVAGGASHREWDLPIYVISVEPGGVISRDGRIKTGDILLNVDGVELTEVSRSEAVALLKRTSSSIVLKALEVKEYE

Binder | pKd
B1 | below the threshold
B2 | below the threshold

target: TJP1_2, Q07157; test: holdup assay; set-up: key: below the threshold = too weak to quantify, mostly under pKd 3.1 to 4; settings: plain residues with an end cap or a label only (N-terminal biotin on a linker: ado-ado)
Sequence (Q07157 181-274): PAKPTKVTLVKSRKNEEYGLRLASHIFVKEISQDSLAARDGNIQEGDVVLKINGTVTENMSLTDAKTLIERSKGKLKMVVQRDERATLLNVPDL

Binder | pKd
B1 | below the threshold
B2 | below the threshold
